# Measured values: patent US20240324599A1, “PESTICIDAL ENZYMES FOR USE ON NEMATODES, INSECTS, AND MOLLUSKS” (priority 2023, published 2024)
# Where two headings read alike, the source gives them in different places.
# B1: Streptomyces coelicolor Chitinase F (Chi19F) (protein)
# chain: ASCSSYHAWSADANYNTGDIVRYTDGKAYIAEHANPGYDPLISTWYWDPYACDGGSQTPVGNFVVSEAQFNQMFPGRNSFYTYSGLTAALSAYPGFANTGSDTTKKQEAAAFLANVSHETGGLVYIVEQNTANYPHYCDWNQPYGCPAGQAAYYGRGPIQLSWNFNYKAAGDALGIDLLGNPWLVQNDAAVAWKTGLWYWNTQSGPGTMTPHNAMVNGAGFGQTIRSINGSLECDGKNPAQVQSRVTKYQQFAQILGVSPGGNLYC
# modifications: Chitinase F (Chi19F); Streptomyces coelicolor
# B2: Bacillus subtilis Esterase (EstB without signal sequence) (protein, listed as Bacillus subtilis)
# chain: ESVHNPVVLVHGISGASYNFFAIKNYLISQGWQSNKLYAIDFYDKTGNNLNNGPQLASYVDRVLKETGAKKVDIVAHSMGGANTLYYIKYLGGGNKIQNVVTLGGANGLVSSTALPGTDPNQKILYTSIYSLNDQIVINSLSRLQGARNIQLYGIGHIGLLSNSQVNGYIKEGLNGGGLNTN
# modifications: Esterase (EstB H191 without signal sequence)
# Key:
# Assay type in all cases: in vivo
# [1] = system: SCN juveniles (SCN HG type 1.2.5.7, race 2); settings: for Difference in Percent Death of Nematodes for 0 to 24 Hours: 40 μL of each treatment per well
# Excerpt: To identify an additional esterase enzyme with efficacy in reducing SCN viability, we performed an in-vitro plate assay with a Pseudomonas sp. esterase (SEQ ID NO: 248) free enzyme direct treatment. The Pseudomonas sp. esterase (SEQ ID NO: 248) was produced by fermentation in Bacillus subtilis. The enzyme was cloned into a Bacillus expression plasmid p1797 with isopropyl β-d-1-thiogalactopyranoside (IPTG) inducible expression. The plasmid was transformed into B. subtilis, and the gene sequence was confirmed. The strain was grown in rich media until an optical density (OD) 0.2-0.5 was reached. Enzyme expression was then induced by addition of […] IPTG. Following the culture harvest, cells were removed by filtration through a […] filter. The culture filtrate containing the secreted enzyme was then collected and used for further applications.
# (§1) SCN eggs were obtained from SCN HG type 1.2.5.7, race 2. Eggs were rinsed 4 times with sterile water. Eggs were transferred to a 6-well plate and resuspended in 5 mL of 3 mM ZnSO4. The plate was sealed with parafilm, covered with aluminum foil to prevent light from entering the plate, and placed in a plate growth chamber at 25° C. and 80% relative humidity. After 6-7 days of incubation, an estimate of hatched SCN juveniles was obtained from the well to determine the overall number of juveniles per 10 μL. The concentration of the hatchery solution was adjusted until it consisted of 20-30 juveniles per 10 μL.
# Potato dextrose agar media containing chloramphenicol and chlortetracycline was prepared and added to sterile twenty-four-well cell culture plates (1 mL per well). The plates were divided according to the pre-determined N-value for each treatment (N=12-24). Each treatment being tested was added to the agar surface within each well at a rate of 40 μL per well. Without allowing the treatments to dry, 10 μL of the prepared nematode mixture was added to the agar surface within each well.
# To quantify the treatments' effects on nematode viability, the nematodes were examined under a dissecting microscope at 20× magnification. Initial (T0) values for the number of live juveniles, number of dead juveniles and total number of juveniles were recorded immediately after preparation of each well. The plates were then wrapped in parafilm around the open edge, encased in aluminum foil, and placed in secondary containment. The secondary containment was placed in a plant growth chamber at 25° C. and 80% relative humidity. At approximately 24 hours post addition of juveniles, the plates were evaluated, and the number of live juveniles, dead juveniles and total number of juveniles were recorded (T24).
# The difference in percent death at T0 vs T24 was calculated by subtracting the percent dead at TO [(#dead juveniles/total #juveniles)×100] from the percent dead at T24 [(#dead juveniles/#total juveniles originally present)×100]. […] If the ANOVA indicated a significant difference existed among treatments, Tukey's HSD post hoc test was used to perform a pairwise contrast between each set of treatments. Different letters denote statistically significant results at P<0.05.
# as §1, with “from” for “from SCN”, “rinsed four” for “rinsed 4”, “and 80-90%” for “and 80%”, “from each” for “from the”
# Potato dextrose agar media containing chloramphenicol and chlortetracycline was prepared and added to sterile twenty-four-well cell culture plates (1 mL per well). […]
# [2] = system: Btk resistant Diamondback moth; experiment: Diet-surface overlay (DSO) bioassay; settings: Table 47, Btk resistant
# How it was run: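 Enzyme treatments (0.1 mL) were applied over the surface of antibiotic-free artificial diet, with one first-instar larva per cell and 16 or 32 larvae per treatment. After 7 days at 27° C under a 16:8 light-dark cycle, larvae were scored as dead, larval stage, pupa or adult. Water served as the negative control and 1000 ppm Btk spores as the positive control.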
# [3] = system: Diamondback moth (Plutella xylostella); experiment: Diet-surface overlay (DSO) bioassay
# Method: Diet-surface overlay bioassays are conducted with artificial diet mixes without antibiotics in 1.5 cm^2 cell bioassay trays(s). Artificial diets are commercially available from Southland Products Inc. Diets were prepared by dispersing 0.5 mL of molten diet to each 1.5 cm^2 cell. After solidification, 0.1 mL enzyme treatments were dispersed on top of diet in each cell and the tray was gently rocked in an orbital shaker to spread the liquid uniformly over the diet surface. Trays were placed under clean airflow until the surface of each cell was uniformly dried. One or two 16-cell sections were used per treatment (the number in larvae treated was 16 or 32).
# One healthy first instar larva was placed into each treatment cell, each 16-cell section was covered with a re-sealable lid and incubated at 27° C. and light-dark period of 16:8 hrs. After 7 days, and according to the species, the number of individuals in the following developmental categories was recorded.
# Diamondback moth (Plutella xylostella): Dead Larva (lack of movement), Larva Stage I (≤50% relative size), Larva Stage II (100% relative size, full size), Early Pupa (light green color), Late Pupa (light-dark brown color), and Adult.
# Negative/untreated controls were treated with filtered water and positive controls were treated with lethal doses of Bacillus thuringiensis subsp. Kurstaki (Btk) spores at 1000 ppm.
# [4] = Table 49, esterases, number of individuals, n = 32
Molecule,"Difference in Percent Death of Nematodes for 0 to 24 Hours ([1]; Table 32, water only 4%) [%]",difference in percent death during 24 hours ([1]; text to Table 32) [%],"Dead Larva ([2]; individuals of n = 32 after 7 days, mU/mL diet: SEQ 182 3.7, SEQ 185 0.6, water 1)","Early Pupa ([2]; n = 32, doses as E97, water 0)","Larva Stage I ([2]; n = 32, doses as E97, water 0)","Larva Stage II ([2]; n = 32, doses as E97, water 0)","Adult ([2]; n = 32, doses as E97, water 7)","Late Pupa ([2]; n = 32, doses as E97, water 24)","Difference in Percent Death of Nematodes for 0 to 24 Hours ([1]; Table 28, fertilizer 3% v/v) [%]","difference in percent death over twenty-four hours, single treatment relative to the combination Esterase B + 10-34-0 fertilizer ([1]; text to Table 28) [%]","Adult [3, 4]","Early Pupa [3, 4]","Larva Stage I [3, 4]","Larva Stage II [3, 4]","Late Pupa [3, 4]","Dead Larva ([3]; Table 49, esterases, number of individuals, n = 32, dose per treatment in U/mL Diet)",individuals at larva stage ([3]; text to Table 49) [%],individuals with delayed larva-pupa development ([3]; text to Table 49) [%]
B1,24,24,2,4,2,1,1,22,–,–,–,–,–,–,–,–,–,–
B2,–,–,–,–,–,–,–,–,3,−7,0,4,3,8,17,0,34,47
